Experimental data taken from publication doi:10.1101/2024.10.04.616518 (2024).

Tests used:
[1] = molecular target: bovine pancreatic chymotrypsin (bovine); assay: apparent Ki, intercept of IC50 vs chymotrypsin concentration
[2] = molecular target: bovine pancreatic chymotrypsin (bovine); assay: apparent Ki, Morrison fit, 25 nM chymotrypsin

B1: ixochymostatin (natural protein)
chain: ANTGIEWPPKPQKCAEGETWKECVGSSCAELTCEHPEPSLGCTYDCNYGCYCAPDFFRNANKECVKKDKCP
Binder B1 has a Ki [1] of 16.5 nM and a Ki [2] of 0.99 nM.
